Test [1] has as its target T1, RAGE-Fc (R&D Systems #1145-RG) (UniProt Q15109 24-344).
T1 construct: Bought reagent; not shown: Fc part of the bought fusion; detected with anti-human IgG
Description: ELISA: biotinylated antigen on streptavidin plate, RAGE-Fc, detection with anti-human IgG HRP. As to the method: (§1) Plates were washed 3×with 200 μl PBS-T (PBS +1% (v/v) Tween-20) and blocked with 300 μl/well blocking buffer (PBS with 1% BSA (Sigma, A9576)) for 1 hour. […] Plates were washed with 200 μl PBS-T three times. […] Plates were washed 3×with PBS-T and developed with TMB, 100 μl/well (Sigma, T0440). The reaction was quenched with 50 μl/well 0.1 M H2504. Absorbance was read at 450nm on the Cytation Gen5 or similar equipment.

For test [2], the target named is T2, EGFR-Fc (R&D Systems #344-ER-050) (UniProt P00533 25-645).
T2 construct: Bought reagent; not shown: Fc part of the bought fusion; detected with anti-human IgG
Description: ELISA: biotinylated antigen on streptavidin plate, EGFR-Fc with or without untagged RAGE, detection with anti-human IgG HRP. As to the method: as §1

For test [3], the target named is T1, RAGE-Fc (R&D Systems #1145-RG). Description: ELISA: biotinylated oxIL-33 on streptavidin plate, RAGE-Fc 10 µg/mL, anti-human IgG HRP. As to the method: as §1
Test [4] shares this target. The test can be described thus: ELISA: biotinylated antigen on streptavidin plate, RAGE-Fc at 10 µg/mL, detection with anti-human IgG HRP. Here is the method: as §1
For test [5], the target named is T2, EGFR-Fc (R&D Systems #344-ER-050). Description: ELISA: biotinylated antigen on streptavidin plate, EGFR-Fc, detection with anti-human IgG HRP. As to the method:
as §1

Test [6] concerns the target T3, ST2S-Fc-His6 fusion protein (human, UniProt Q01638 19-328).
T3 construct: CD33 signal peptide used for secretion, not part of the protein; also called soluble human ST2S extracellular domain fused to human IgG1 Fc-His6; human ST2 ECD
T3 sequence: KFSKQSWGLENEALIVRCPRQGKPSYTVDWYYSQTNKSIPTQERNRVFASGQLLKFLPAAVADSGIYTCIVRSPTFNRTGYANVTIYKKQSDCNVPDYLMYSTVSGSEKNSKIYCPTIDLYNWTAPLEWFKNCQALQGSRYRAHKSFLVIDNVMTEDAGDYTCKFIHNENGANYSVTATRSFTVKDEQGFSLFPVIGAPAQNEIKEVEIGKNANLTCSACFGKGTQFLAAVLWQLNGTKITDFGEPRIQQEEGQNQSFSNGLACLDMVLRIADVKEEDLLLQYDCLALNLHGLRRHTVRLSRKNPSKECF
The test can be described thus: depletion of remaining reduced IL-33 from the oxIL-33 preparation, in solution, then size exclusion.

T1 sequence (Q15109 24-344 limits assumed): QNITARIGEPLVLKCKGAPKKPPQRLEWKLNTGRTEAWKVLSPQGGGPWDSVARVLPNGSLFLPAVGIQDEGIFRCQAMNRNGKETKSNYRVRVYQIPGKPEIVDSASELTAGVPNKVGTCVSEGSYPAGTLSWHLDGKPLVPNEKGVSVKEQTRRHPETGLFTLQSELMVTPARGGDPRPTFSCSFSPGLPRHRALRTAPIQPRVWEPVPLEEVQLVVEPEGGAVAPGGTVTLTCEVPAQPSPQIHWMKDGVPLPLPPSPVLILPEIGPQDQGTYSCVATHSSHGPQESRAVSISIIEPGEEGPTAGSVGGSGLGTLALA

B1: IL-33[C->S] (ligand)
cytokine: MHHHHHHHHHHAAGLNDIFEAQKIEWHEAAIEGRSITGISPITEYLASLSTYNDQSITFALEDESYEIYVEDLKKDEKKDKVLLSYYESQHPSNESGDGVDGKMLMVTLSPTKDFWLHANNKEHSVELHKSEKPLPDQAFFVLHNMHSNSVSFESKTDPGVFIGVKDNHLALIKVDSSENLSTENILFKLSET
modifications: biotinylated at the Avitag with BirA
notes: also called IL33-16
Take B1: the binding result in test [1] and in test [2] was “no binding” each time.

B2: Avitag_IL-33-01 (oxidised IL-33), biotinylated (ligand)
chain: MHHHHHHHHHHAAGLNDIFEAQKIEWHEAAIEGRSITGISPITEYLASLSTYNDQSITFALEDESYEIYVEDLKKDEKKDKVLLSYYESQHPSNESGDGVDGKMLMVTLSPTKDFWLHANNKEHSVELHKCEKPLPDQAFFVLHNMHSNCVSFECKTDPGVFIGVKDNHLALIKVDSSENLCTENILFKLSET
modifications: biotinylated on the Avitag with BirA; oxidised (disulphide bonded) form of IL-33
notes: also called oxIL-33; oxidised IL-33-01
For the molecule B2, in test [3], the binding result is “binds”.

B3: HMGB1 (R&D systems 1690-HMB-050), biotinylated (ligand, UniProt P09429 1-215, looked up)
chain: MGKGDPKKPRGKMSSYAFFVQTCREEHKKKHPDASVNFSEFSKKCSERWKTMSAKEKGKFEDMAKADKARYEREMKTYIPPKGETKKKFKDPNAPKRPPSAFFLFCSEYRPKIKGEHPGLSIGDVAKKLGEMWNNTAADDKQPYEKKAAKLKEKYEKDIAAYRAKGKPDAAKKGVVKAEKSKKKKEEEEDEEDEEDEEEEEDEEDEDEEEDDDDE
modifications: biotinylated via free amines (EZ link Sulfo-NHS-LC-Biotin)
As for B3, the figures for the binding result in test [4] and in test [5] were “binds” and “no binding”, respectively.

B4: Untagged IL33-01 (reduced IL-33) (ligand)
chain: SITGISPITEYLASLSTYNDQSITFALEDESYEIYVEDLKKDEKKDKVLLSYYESQHPSNESGDGVDGKMLMVTLSPTKDFWLHANNKEHSVELHKCEKPLPDQAFFVLHNMHSNCVSFECKTDPGVFIGVKDNHLALIKVDSSENLCTENILFKLSET
notes: also called redIL-33; wild type IL-33
Consider B4, for which the binding result in test [6] was “binds”.

B5: Biotinylated EGF (Thermo) (ligand, UniProt P01133 971-1023, looked up)
chain: NSDSECPLSHDGYCLHDGVCMYIEALDKYACNCVVGYIGERCQYRDLKWWELR
modifications: biotinylated (bought so)
On to B5, for which, in test [1], the binding result was “no binding”.
